Reference: the nanobody polyreactivity screen of Harvey et al. (2022)

Assay: yeast display, Sf9 membrane polyspecificity reagent, FACS + sequencing; frameworks hold sequencing errors
How it was run: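 In a synthetic yeast display library (Saccharomyces cerevisiae BJ5465), nanobody expression was induced with galactose for 36–48 hours. FACS gates were set low and high (top ~1%) using anti-HA fluorescence for expression and streptavidin fluorescence for binding of the Sf9 membrane reagent. Each polyreactivity label is drawn from the gate of origin.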

| Sequence | polyreactivity (PSR sort gate) |
| --- | --- |
| QVQLVESGGGLVQAGGSLRLSCAASGFILLDNAMGRYRQAPVKEREFVASINISGDRTFYADSVKGRFTISRDNAKNTVYLQMNSLKPEDTAVYYCAKEPGLGRRSTTAYDYWGQGTQVTVSS | low polyreactivity |
| QVQLVESGGGLVQAGGSLRLSGAASGSTFTEYAMGWYRQAPGKEREFVAAITESGASTYYADSVKGRFTISRDNAKNTVYLQRNSLKPEDTAVYYCNAGYWRFIDSYDYWGQGTQVTVSS | high polyreactivity |
| QVQLVESGGGLVQAGGSLRLSCAASGITLSIYAMGWYRQAPGKERELVAAINGNGGSTYYADSVKGRFTISRDNAKNTVYLQMNSLKPEDTAVYYCAVTDYVYEHDDYWGQGTQVTVSS | low polyreactivity |
| QVQLVESGGGLVQAGGSLRLSCAASGRTFGRNVMGWYRQAPGKERELVAAISRSGGSTYYADSVKGRFTISRDNAKNTVYLQMNSLKPEDTAVYYCAAKYYRDRDWGQGTQVTVSS | high polyreactivity |
| QVQLVESGGGLVQAGGSLRLSCGASGRIFAVNAMGWYRQARGKERELVAAITNVGSTNYADSVKGRFTISRDNAKNTVYLQMNSLKPEDTAVYYCNADLAQEDWKMDYWGLGTQVTVSS | low polyreactivity |
| QVQLVESGGGLVQAGGSLRLSCAASGFIFSRYGMGWYRQAPGKERELVAAISRSGGSTYYADSVKGRFTISRDNAKNTVYLQMNSLKPEDTAVYYCATAYSWRNADRFAYSYDYWGQGTQVTVSS | low polyreactivity |
| QVQLVESGGGLVQAGGSLRLSCAASGFTFTRYAMGWYRQAPGKERELVAAITTNSGSRTYYADSVKGRFTISRDNAKNTVYLQMNSLKPEDTAVYYCAADGPVVRGYYWGQGTQVTVSS | high polyreactivity |
| QVQLGESGGGLVQEGGSLRLSCAASGSTLQDYDMGWYRQAPGKERELVAAITWSTGTTYYADSVKGRFTISRDNAKNTVYLQMNSLKPEDPAVYYCAVDSYYRATYTYRYDYWGLGTQVTVSS | low polyreactivity |
| QVQLVESGGGLVQAGGSLRLSCAASGFIFSYYAMGLYRQAPGKERELVAAINWTGGSTYYADSVKGRFTISRDNAKNTVYLQMNSLKPEDTAVYYCAADSHLRGRSEDYWGQGTQVTVSS | high polyreactivity |
| QVQLVESGGGLVQAGGSLRLSCAASGITFQLYAMGWYRQAPGKERELVAAIDASGGITNYADSVKGRFTISRDNAKNTVYLQMNSLKPEDTAVYYCASFFKLRYRYQFWRYGFGYWGQGTQVTVSS | high polyreactivity |
| QVQLVESGGGLVQAGGSLRLSCAASGSTFWSYAMGWYRQAPGKEREFVAAISSSDDSTYYADSVKGRFTISRDNAKNTVYLQMNSMKPEDTAVYYCATSWYIYPYDYWGQGTQVTVSS | low polyreactivity |
| QVQLVESWGGLVQAGGSLRLSCAASGFTFVSYAMGWYRQAPGKERELVAAISKRGGSTSYADSVKGRFTISRDNAKNTVYLQMNSLKPEDTAVYYCYNRSYAWSPHVDYWGQGTQVTVSS | high polyreactivity |
| QVQLVESGGGLVQAGGSLRLSCAASGRTFETNAMGWYRQAPGKERELVASINWSGGSTYYADSVKGRFTISRDNAKNTVYLQMNSLKPEDTAVFYCAADHSYWDWWSYYYWGQGTQVTVSS | low polyreactivity |
| QLQLVESGGGLVQAGGSLRLSCAASGGTFYSYEMGWYRQATVKEREFVAAITYGGGSTYYADSVKGRFTMSRDNAKNTDYLQMNSLKPEDTAVYYCYARRYGSRLGERYYYWGQGTQVTVSS | high polyreactivity |
| QVQLVESGGGLVPAGGSLRLSCAASGRIFFRNAMGWYRQAPGKERELVAAITYSGGSTYYADSVKGRFTISRDNAKNTVYLQMNSLKPEDTAVSYCAAGYWFSYSRVTRYDYWGQGTQVTVSS | high polyreactivity |
| QVQLVESGGGLVQAGGSLRLSCAASGSTFVYYALGWYRPSPGKERELVARITRSGGSTYYADSVKGRFTISRDNAKNTVYLQMNSLKPEDTAVYYCAAEQSVYFLVFTGVKFDYWGQGSQVTVSS | low polyreactivity |
| QVQLVESGGGLVQAGGSLRLSCAASGSTFHSYAMGWYRQAPGKERELVAAISSSGGSTYYADSVKGRFTISRDNAKNTVYLQMNSLKPEDTAVYYCAADWRTKGYDSLGQGTQVTVSS | high polyreactivity |
| QVQLVESGGGLVKAGGSLRLSCAASGFIFLQYVMGSYRQAPVKERELVAAITSGGSTYYADSVKARFTISRDNAKNTVYLQMNSLKPEDTAVYFCATDVADNTFDALYGSDYWGQCTQVTVSS | low polyreactivity |
| QVQLVESGGGLVQAGGSLRLSCAASGSTFDYNAMGWYRQAPGKERELVATITSTGRTNYADSVKGRFTISRDNAKNTVYLQMNSLKPEDTAVYYCAKRTFFGKARGGPTYRLYYWGQGTQVTVSS | high polyreactivity |
| QVQLVESGGGLVQAGGSLRLSCAASGSILTPYAMGWYRQAPGKERELVAAISWGDGSTYYADSVKGRFTISRDNAKNTVYLQMNSLKPEDTAVYYCAAVSYYGVDQYRITVYTYEYWGQGTQVTVSS | low polyreactivity |
| QVQLVESGGGLVQAGGSLRLSCAASGRTFSYNAMGWYRQAPGKERELVAAISWSDGSTYYADSVKGRFTISRDNAKNTVYLQMNSLKPEDTAVYYCAVESFYRHASLYDNWGQGTQVTVSS | high polyreactivity |
